# Measured values: the supplement of paper PMC9112550, “Optimization of the antimicrobial peptide Bac7 by deep mutational scanning” (BMC Biology, 2022)
# Tested on: Escherichia coli TOP10
# Test: shrunken log2 fold change of peptide-encoding DNA abundance (4.5 h post-induction vs induction); higher = less antimicrobial activity (less host growth inhibition)
# Settings: time post-induction: 4.5 h; library: site-saturation at positions 5, 18, 19, 20
# 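Further: peptides expressed intracellularly from a pBAD plasmid library in pooled LB shake-flask culture, induced with 0.3% L-arabinose, DNA abundance read by NGS, three biological replicates, DESeq2 with apeglm shrinkage.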
row,Sequence,shrunken log2 fold change
1,RRIRARPPRLPRPRPRPSMAPRP,0.333
2,RRIRRRPPRLPRPRPRPLTYPRP,-0.204
3,RRIRCRPPRLPRPRPRPMYPPRP,-0.375
4,RRIRFRPPRLPRPRPRPYSHPRP,-1.77
5,RRIRKRPPRLPRPRPRPMHVPRP,-0.0434
6,RRIRVRPPRLPRPRPRPYGPPRP,-0.041
7,RRIRDRPPRLPRPRPRPGLQPRP,0.56
8,RRIRLRPPRLPRPRPRPLTTPRP,-0.0027
9,RRIRRRPPRLPRPRPRPYMGPRP,0.00385
10,RRIRTRPPRLPRPRPRPVVVPRP,0.0543
11,RRIRTRPPRLPRPRPRPGDEPRP,0.195
12,RRIRRRPPRLPRPRPRPSCWPRP,0.285
13,RRIRIRPPRLPRPRPRPQFAPRP,-0.0319
14,RRIRVRPPRLPRPRPRPKRTPRP,0.0795
15,RRIRWRPPRLPRPRPRPVWKPRP,0.0259
16,RRIRLRPPRLPRPRPRPNYCPRP,-0.31
17,RRIRDRPPRLPRPRPRPCLLPRP,0.491
18,RRIRYRPPRLPRPRPRPTTTPRP,-0.00235
19,RRIRQRPPRLPRPRPRPKIEPRP,-0.32
20,RRIRDRPPRLPRPRPRPIQMPRP,0.137
21,RRIRERPPRLPRPRPRPWFFPRP,-0.358
22,RRIRVRPPRLPRPRPRPLDAPRP,0.571
23,RRIRTRPPRLPRPRPRPAEFPRP,-0.355
24,RRIRNRPPRLPRPRPRPHIQPRP,2.34
25,RRIRERPPRLPRPRPRPYNIPRP,-0.184

row,Sequence,shrunken log2 fold change
1,RRIRVRPPRLPRPRPRPGYWPRP,0.0156
2,RRIRFRPPRLPRPRPRPWSYPRP,-0.48
3,RRIRVRPPRLPRPRPRPNPEPRP,-0.286
4,RRIRNRPPRLPRPRPRPLPIPRP,-0.299
5,RRIRRRPPRLPRPRPRPWYCPRP,-0.21
6,RRIRPRPPRLPRPRPRPPFFPRP,0.415
7,RRIRDRPPRLPRPRPRPLFCPRP,0.208
8,RRIRARPPRLPRPRPRPNNMPRP,-0.516
9,RRIRQRPPRLPRPRPRPEDMPRP,0.0353
10,RRIRRRPPRLPRPRPRPFHVPRP,-0.00804
11,RRIRFRPPRLPRPRPRPPKSPRP,0.234
12,RRIRGRPPRLPRPRPRPCTWPRP,0.228
13,RRIRARPPRLPRPRPRPAMMPRP,0.511
14,RRIRERPPRLPRPRPRPEPMPRP,-0.0016
15,RRIRPRPPRLPRPRPRPTMHPRP,0.0766
16,RRIRVRPPRLPRPRPRPTNRPRP,3.75
17,RRIRMRPPRLPRPRPRPMDIPRP,0.468
18,RRIRPRPPRLPRPRPRPALTPRP,0.241
19,RRIRYRPPRLPRPRPRPIPNPRP,-0.336
20,RRIRWRPPRLPRPRPRPNRLPRP,-0.0743
21,RRIRVRPPRLPRPRPRPNGWPRP,0.0568
22,RRIRVRPPRLPRPRPRPDVKPRP,-0.0375
23,RRIRARPPRLPRPRPRPDNVPRP,-0.059
24,RRIRIRPPRLPRPRPRPMLVPRP,0.0625
25,RRIRHRPPRLPRPRPRPELDPRP,0.6

row,Sequence,shrunken log2 fold change
1,RRIRNRPPRLPRPRPRPWDFPRP,-0.00226
2,RRIRCRPPRLPRPRPRPYMDPRP,0.0215
3,RRIRQRPPRLPRPRPRPLDMPRP,0.0532
4,RRIRTRPPRLPRPRPRPYTRPRP,-0.0177
5,RRIRPRPPRLPRPRPRPGIKPRP,-0.0194
6,RRIRQRPPRLPRPRPRPTDGPRP,0.178
7,RRIRYRPPRLPRPRPRPHDIPRP,-0.00174
8,RRIRVRPPRLPRPRPRPKYQPRP,-0.876
9,RRIRRRPPRLPRPRPRPEADPRP,0.774
10,RRIRRRPPRLPRPRPRPAHWPRP,0.672
11,RRIRERPPRLPRPRPRPADVPRP,0.00489
12,RRIRYRPPRLPRPRPRPWALPRP,-0.355
13,RRIRFRPPRLPRPRPRPRFRPRP,-0.0973
14,RRIRLRPPRLPRPRPRPKKLPRP,0.111
15,RRIRCRPPRLPRPRPRPWSGPRP,-0.0937
16,RRIRVRPPRLPRPRPRPPLKPRP,0.343
17,RRIRIRPPRLPRPRPRPYHYPRP,-0.415
18,RRIRYRPPRLPRPRPRPCLNPRP,-0.216
19,RRIRARPPRLPRPRPRPIPWPRP,0.313
20,RRIRRRPPRLPRPRPRPWSAPRP,0.131
21,RRIRHRPPRLPRPRPRPTEIPRP,0.0223
22,RRIRPRPPRLPRPRPRPWQCPRP,-0.0562
23,RRIRKRPPRLPRPRPRPGQYPRP,0.0797
24,RRIRNRPPRLPRPRPRPYSDPRP,-0.031
25,RRIRSRPPRLPRPRPRPKDMPRP,-0.123
